Data: publication PMC6135765, “Redox control and autoxidation of class 1, 2 and 3 phytoglobins from Arabidopsis thaliana” (Scientific Reports, 2018)

B1: His8-MBP:AtHb3 (Arabidopsis thaliana class 3 non-symbiotic, truncated hemoglobin / phytoglobin, before tag cleavage) (natural protein, UniProt Q67XG0 1-175, looked up)
chain: MQSLQDKASVLSGVDQAEAFAIDESNLFDKLGLQTFINLSTNFYTRVYDDEEEWFQSIFSNSNKEDAIQNQYEFFVQRMGGPPLYSQRKGHPALIGRHRPFPVTHQAAERWLEHMQNALDDSVDIDQDSKIKMMKFFRHTAFFLVAGNELKNQNEKPKHKPQCACKHAANKPAEE
notes: AtHb3, class 3 non-symbiotic (truncated, 2-on-2) hemoglobin of Arabidopsis thaliana; Heme protein; Expressed from pVP16 (Gateway) with an N-terminal 8xHis:MBP double tag and a TEV site; carboxy form oxidised to the ferric form on the column; also called His8-MBP-tagged AtHb3; 8xHis:MBP:Hb3; not shown: His8, N-terminal, kept; MBP, N-terminal, kept
B2: AtHb3 (Arabidopsis thaliana class 3 non-symbiotic, truncated hemoglobin / phytoglobin, His8-MBP removed) (natural protein, UniProt Q67XG0 1-175, looked up)
chain: MQSLQDKASVLSGVDQAEAFAIDESNLFDKLGLQTFINLSTNFYTRVYDDEEEWFQSIFSNSNKEDAIQNQYEFFVQRMGGPPLYSQRKGHPALIGRHRPFPVTHQAAERWLEHMQNALDDSVDIDQDSKIKMMKFFRHTAFFLVAGNELKNQNEKPKHKPQCACKHAANKPAEE
notes: AtHb3, class 3 non-symbiotic (truncated, 2-on-2) hemoglobin of Arabidopsis thaliana; Heme protein; The gene primer encodes ENLYFQ directly before the first Met, the adapter primer ENLYFQG before Met; also called class 3 nsHb; source: TEV cleavage, HisTrap removal of the tag, anion exchange; not shown: His8, N-terminal, cleaved; MBP, N-terminal, cleaved
B3: His8-MBP:AtHb1 (Arabidopsis thaliana class 1 non-symbiotic hemoglobin / phytoglobin, before tag cleavage) (natural protein, UniProt O24520 1-160, looked up)
chain: MESEGKIVFTEEQEALVVKSWSVMKKNSAELGLKLFIKIFEIAPTTKKMFSFLRDSPIPAEQNPKLKPHAMSVFVMCCESAVQLRKTGKVTVRETTLKRLGASHSKYGVVDEHFEVAKYALLETIKEAVPEMWSPEMKVAWGQAYDHLVAAIKAEMNLSN
notes: AtHb1, class 1 non-symbiotic hemoglobin of Arabidopsis thaliana; Heme protein; Expressed from pVP16 (Gateway) with an N-terminal 8xHis:MBP double tag and a TEV site; also called His8-MBP-tagged AtHb1; 8xHis:MBP:Hb1; not shown: His8, N-terminal, kept; MBP, N-terminal, kept
B4: AtHb1 (Arabidopsis thaliana class 1 non-symbiotic hemoglobin / phytoglobin, His8-MBP removed) (natural protein, UniProt O24520 1-160, looked up)
chain: MESEGKIVFTEEQEALVVKSWSVMKKNSAELGLKLFIKIFEIAPTTKKMFSFLRDSPIPAEQNPKLKPHAMSVFVMCCESAVQLRKTGKVTVRETTLKRLGASHSKYGVVDEHFEVAKYALLETIKEAVPEMWSPEMKVAWGQAYDHLVAAIKAEMNLSN
notes: AtHb1, class 1 non-symbiotic hemoglobin of Arabidopsis thaliana; Heme protein; The gene primer encodes ENLYFQ directly before the first Met, the adapter primer ENLYFQG before Met; also called class 1 nsHb; source: TEV cleavage, HisTrap removal of the tag, size exclusion and/or anion exchange; not shown: His8, N-terminal, cleaved; MBP, N-terminal, cleaved

Target: the molecule itself
Assay: SEC; analytical size exclusion chromatography of the purified proteins, before and after His8-MBP removal; apparent native size in solution

Stoichiometry N, 2:
B1, B2, B3, B4
